Legend:
HLA-A*02:01 [1] = assay: IEDB peptide-MHC binding, purified MHC/competitive/fluorescence; filed as Kd, often an IC50 or EC50 that approximates it; ≥ and ≤ were set here for values at or beyond the usual limits of such assays
HLA-C*12:03 = assay: IEDB peptide-MHC binding, purified MHC/direct/fluorescence; filed as Kd, often an IC50 or EC50 that approximates it; ≥ and ≤ were set here for values at or beyond the usual limits of such assays
HLA-A*02:19 = assay: IEDB peptide-MHC binding, purified MHC/competitive/fluorescence; filed as Kd, often an IC50 or EC50 that approximates it; ≥ and ≤ were set here for values at or beyond the usual limits of such assays; settings: source organism: Human immunodeficiency virus 1
HLA-A*02:11 = assay: as above; settings: source organism: Human immunodeficiency virus 1
HLA-A*02:12 = assay: as above; settings: source organism: Human immunodeficiency virus 1
HLA-A*02:03 = assay: as above; settings: source organism: Human immunodeficiency virus 1
HLA-A*02:06 = assay: as above
HLA-A*69:01 [2] = assay: as above; settings: source organism: Human immunodeficiency virus 1
HLA-A*02:16 = assay: as above; settings: source organism: Human immunodeficiency virus 1
HLA-B*07:02 [3] = assay: IEDB peptide-MHC binding, purified MHC/competitive/fluorescence; ≥ and ≤ were set here for values at or beyond the usual limits of such assays
HLA-A*02:01 [4] = assay: as above
HLA-B*08:01 [5] = assay: as above
HLA-A*24:02 [6] = assay: as above
HLA-C*14:02 = assay: IEDB peptide-MHC binding, purified MHC/direct/fluorescence; filed as Kd, often an IC50 or EC50 that approximates it; ≥ and ≤ were set here for values at or beyond the usual limits of such assays; settings: source organism: Human immunodeficiency virus 1
HLA-B*15:17 = assay: IEDB peptide-MHC binding, purified MHC/competitive/fluorescence; filed as Kd, often an IC50 or EC50 that approximates it; ≥ and ≤ were set here for values at or beyond the usual limits of such assays; settings: source organism: Influenza A virus (A/Fort Monmouth/1/1947-mouse adapted(H1N1))
HLA-B*08:01 [7] = assay: as above; settings: source organism: Influenza A virus (A/Fort Monmouth/1/1947-mouse adapted(H1N1))
HLA-A*68:02 = assay: as above; settings: source organism: Influenza A virus (A/Fort Monmouth/1/1947-mouse adapted(H1N1))
HLA-A*11:01 = assay: IEDB peptide-MHC binding, purified MHC/direct/fluorescence; filed as Kd, often an IC50 or EC50 that approximates it; ≥ and ≤ were set here for values at or beyond the usual limits of such assays
HLA-B*15:01 [8] = assay: as above
HLA-B*07:02 [9] = assay: as above
HLA-B*58:01 = assay: as above
HLA-A*24:03 = assay: as above; settings: source organism: Influenza A virus (A/quail/Hong Kong/FY298/00(H9N2))
HLA-B*18:01 = assay: as above
HLA-A*31:01 = assay: as above
HLA-B*27:05 = assay: as above
HLA-A*03:01 [10] = assay: as above
HLA-A*02:01 [11] = assay: as above; settings: source organism: Influenza A virus (A/quail/Hong Kong/FY298/00(H9N2))
HLA-A*26:01 = assay: as above; settings: source organism: Influenza A virus(A/swine/Henan/5/2004(H9N2))
HLA-B*57:01 = assay: as above
HLA-A*01:01 [12] = assay: as above
HLA-C*07:02 = assay: as above; settings: source organism: Influenza A virus (A/Fort Monmouth/1/1947-mouse adapted(H1N1))
HLA-A*24:02 [13] = assay: as above; settings: source organism: Influenza A virus (A/quail/Hong Kong/FY298/00(H9N2))
HLA-B*08:02 = assay: as above; settings: source organism: Influenza A virus(A/swine/Henan/5/2004(H9N2))
HLA-B*44:02 = assay: as above
HLA-A*29:02 = assay: as above; settings: source organism: Yellow fever virus 1899/81
HLA-B*46:01 = assay: as above
HLA-A*69:01 [14] = assay: as above; settings: source organism: Yellow fever virus 1899/81
HLA-C*05:01 = assay: as above
HLA-B*15:01 [15] = assay: IEDB peptide-MHC binding, purified MHC/competitive/fluorescence; ≥ and ≤ were set here for values at or beyond the usual limits of such assays
HLA-A*03:01 [16] = assay: as above; settings: source organism: Vaccinia virus WR
HLA-A*01:01 [17] = assay: IEDB peptide-MHC binding, purified MHC/competitive/fluorescence; filed as Kd, often an IC50 or EC50 that approximates it; ≥ and ≤ were set here for values at or beyond the usual limits of such assays; settings: source organism: Influenza A virus (A/Harbin/1/1988(H1N2))
HLA-B*48:01 = assay: IEDB peptide-MHC binding, purified MHC/direct/fluorescence; filed as Kd, often an IC50 or EC50 that approximates it; ≥ and ≤ were set here for values at or beyond the usual limits of such assays; settings: source organism: West Nile virus
HLA-B*40:01 = assay: as above; settings: source organism: West Nile virus
HLA-B*15:09 = assay: as above; settings: source organism: West Nile virus strain PTRoxo
[18] = source organism: Influenza A virus (A/Hong Kong/532/1997(H5N1))
[19] = source organism: Human immunodeficiency virus 1
[20] = source organism: Zaire ebolavirus
[21] = source organism: Influenza A virus (A/quail/Hong Kong/FY298/00(H9N2))
[22] = source organism: Yellow fever virus 1899/81
[23] = source organism: Vaccinia virus WR
[24] = source organism: Vaccinia virus Copenhagen
[25] = source organism: West Nile virus

Sequence YLMAWKQVL has a Kd (HLA-A*02:01 [1]; [18]) of 0.0004 µM and a Kd (HLA-C*12:03; [18]) of 0.022 µM.
SLADQLIHL gave a Kd (HLA-A*02:19) of 0.00467 µM, a Kd (HLA-A*02:11) of 0.000145 µM and a Kd (HLA-A*02:12) of 0.00285 µM. The Kd (HLA-A*02:01 [1]; [19]) was 0.0425 µM, the Kd (HLA-A*02:03) was 0.00086 µM and the Kd (HLA-A*02:06; [19]) was no more than 0.0001 µM. For the same sequence, the Kd (HLA-A*69:01 [2]) was 0.277 µM and the Kd (HLA-A*02:16) was 0.0006 µM.
FPQLSAIAL gave an IC50 (HLA-B*07:02 [3]; [20]) of 13.6 µM, an IC50 (HLA-A*02:01 [4]; [20]) of no less than 179 µM and an IC50 (HLA-B*08:01 [5]; [20]) of no less than 129 µM. For the same sequence, the IC50 (HLA-A*24:02 [6]; [20]) was 17.8 µM.
AFHHVAREL gave a Kd (HLA-C*14:02) of no more than 0.001 µM.
SYLIRALTL showed a Kd (HLA-B*15:17) of 0.196 µM, a Kd (HLA-B*08:01 [7]) of 1.72 µM and a Kd (HLA-A*02:06; source organism: Influenza A virus (A/Fort Monmouth/1/1947-mouse adapted(H1N1))) of 1.41 µM. It also gave a Kd (HLA-A*68:02) of 1.19 µM, a Kd (HLA-A*11:01; [21]) of no less than 20 µM and a Kd (HLA-B*15:01 [8]; [21]) of no less than 20 µM. It also gave a Kd (HLA-B*07:02 [9]; [21]) of no less than 20 µM, a Kd (HLA-B*58:01; [21]) of no less than 20 µM and a Kd (HLA-A*24:03) of no more than 0.001 µM. The Kd (HLA-B*18:01; [21]) was no less than 20 µM, the Kd (HLA-A*31:01; [21]) was no less than 20 µM and the Kd (HLA-B*27:05; [21]) was no less than 20 µM. The Kd (HLA-A*03:01 [10]; [21]) was no less than 20 µM, the Kd (HLA-A*02:01 [11]) was no less than 20 µM and the Kd (HLA-A*26:01) was no less than 20 µM. The Kd (HLA-B*57:01; [21]) was no less than 20 µM, the Kd (HLA-A*01:01 [12]; [21]) was no less than 20 µM and the Kd (HLA-C*07:02) was 0.055 µM. For the same sequence, the Kd (HLA-A*24:02 [13]) was 0.0039 µM and the Kd (HLA-B*08:02) was no less than 20 µM.
RADEINAIL showed a Kd (HLA-A*11:01; [22]) of no less than 20 µM, a Kd (HLA-B*15:01 [8]; [22]) of no less than 20 µM and a Kd (HLA-B*18:01; [22]) of no less than 20 µM. The Kd (HLA-B*44:02; [22]) was no less than 20 µM, the Kd (HLA-A*31:01; [22]) was no less than 20 µM and the Kd (HLA-B*27:05; [22]) was no less than 20 µM. The Kd (HLA-A*29:02) was no less than 20 µM, the Kd (HLA-A*03:01 [10]; [22]) was no less than 20 µM and the Kd (HLA-B*57:01; [22]) was no less than 20 µM. It also gave a Kd (HLA-B*46:01; [22]) of no less than 20 µM, a Kd (HLA-A*01:01 [12]; [22]) of no less than 20 µM and a Kd (HLA-A*69:01 [14]) of no less than 20 µM. The Kd (HLA-C*05:01; [22]) was no more than 0.001 µM.
RLPKRSVML showed an IC50 (HLA-B*15:01 [15]; [23]) of 12.7 µM, an IC50 (HLA-B*07:02 [3]; [23]) of 7.67 µM and an IC50 (HLA-A*03:01 [16]) of 34.1 µM. For the same sequence, the IC50 (HLA-A*02:01 [4]; [23]) was 2.65 µM, the IC50 (HLA-B*08:01 [5]; [23]) was 15.2 µM and the IC50 (HLA-A*24:02 [6]; [23]) was 0.0521 µM.
LAKAIITPI showed an IC50 (HLA-B*15:01 [15]; [24]) of 24.5 µM, an IC50 (HLA-B*07:02 [3]; [24]) of 56.1 µM and an IC50 (HLA-A*02:01 [4]; [24]) of 13.7 µM. For the same sequence, the IC50 (HLA-B*08:01 [5]; [24]) was no less than 138 µM and the IC50 (HLA-A*24:02 [6]; [24]) was 6.28 µM.
In the case of YVSVVSSHY, the Kd (HLA-A*01:01 [17]) is reported as 0.549 µM.
ARKHHTKID was tested, and the IC50 (HLA-B*08:01 [5]; source organism: Variola virus) was 41.7 µM and the IC50 (HLA-A*24:02 [6]; source organism: Variola virus) was 0.025 µM.
For FVDVGVSAL, the Kd (HLA-B*48:01) was no less than 20 µM, the Kd (HLA-A*11:01; [25]) was no less than 20 µM and the Kd (HLA-B*15:01 [8]; [25]) was no less than 20 µM. The Kd (HLA-B*07:02 [9]; [25]) was no less than 20 µM, the Kd (HLA-B*40:01) was no less than 20 µM and the Kd (HLA-B*58:01; [25]) was no less than 20 µM. For the same sequence, the Kd (HLA-B*18:01; [25]) was no less than 20 µM, the Kd (HLA-B*44:02; [25]) was no less than 20 µM and the Kd (HLA-A*31:01; [25]) was no less than 20 µM. For the same sequence, the Kd (HLA-B*27:05; [25]) was no less than 20 µM, the Kd (HLA-A*03:01 [10]; [25]) was no less than 20 µM and the Kd (HLA-C*12:03; [25]) was no less than 20 µM. For the same sequence, the Kd (HLA-B*57:01; [25]) was no less than 20 µM, the Kd (HLA-B*46:01; [25]) was no less than 20 µM and the Kd (HLA-B*15:09) was 2.2 µM. For the same sequence, the Kd (HLA-C*05:01; [25]) was no more than 0.001 µM.
IFRLMRTNF showed an IC50 (HLA-B*15:01 [15]; [20]) of 2.18 µM, an IC50 (HLA-B*07:02 [3]; [20]) of 9.03 µM and an IC50 (HLA-B*08:01 [5]; [20]) of 55.2 µM. For the same sequence, the IC50 (HLA-A*24:02 [6]; [20]) was 0.0398 µM.
